Test results taken from paper PMC8087810, “Interfacing aptamers, nanoparticles and graphene in a hierarchical structure for highly selective detection of biomolecules in OECT devices”.

Biological target: alpha-thrombin (UniProt P00734;P00734 328-363;364-622)
Test: OECT aptasensor (sigmoidal fit of delta ratio, EC50); EC50 of sensor response, 1-100 pM thrombin, Tris buffer; LoD 5.000±0.087 pM; surface-immobilized aptamer; Thrombin: Tris buffer (composition not in material); BSA: PBS (137 mM NaCl, 2.7 mM KCl, 10 mM Na2HPO4, 1.8 mM KH2PO4), pH 7.4 (Tris stated as same pH); BSA and

B1: TBA15 (thrombin binding aptamer, Fc/SH modified) (structured_DNA)
DNA: GGTTGGTGTGGTTGG
modifications: 5' ferrocene; 3' C6-SH thiol, immobilized on AuNPs-PMLG gate electrode, MCH blocked
- apparent K (half saturation): 0.0489 nM
